Experimental data from paper PMC12846780.

Target: IL7R (human (endogenous in PBMC T cells, SiHa, Daudi)) (UniProt P16871)
Chain of UniProt P16871 (P16871 21-459): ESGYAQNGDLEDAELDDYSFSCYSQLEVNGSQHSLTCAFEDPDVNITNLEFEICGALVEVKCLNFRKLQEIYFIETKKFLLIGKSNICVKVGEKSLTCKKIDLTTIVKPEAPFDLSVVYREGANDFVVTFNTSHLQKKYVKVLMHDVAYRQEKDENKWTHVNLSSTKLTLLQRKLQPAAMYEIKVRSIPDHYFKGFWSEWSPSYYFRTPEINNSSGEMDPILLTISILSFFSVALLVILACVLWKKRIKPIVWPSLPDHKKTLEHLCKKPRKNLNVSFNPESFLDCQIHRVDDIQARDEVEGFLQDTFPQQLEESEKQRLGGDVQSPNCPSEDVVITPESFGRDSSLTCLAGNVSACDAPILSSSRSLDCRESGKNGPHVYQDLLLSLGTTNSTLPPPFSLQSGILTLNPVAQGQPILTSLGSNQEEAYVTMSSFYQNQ

IL7-Bevacizumab kineTAC (from UniProt P13232 26-177) (bispecific antibody)
percent of T cells in PBMCs positive for VEGF-647 after 24 h with 10 nM kineTAC and 25 nM VEGF-647 (four donors): 85.4%
